Results reported in patent publication US20050113303.

Target: [D-Ala^2,Leu^5]enkephalin

Row | Protein | production of Tyr-D-Ala-Gly from the substrate, HPLC
1 | recombinant human PEX protein (full-length, expressed from plasmid pPEX in COS-7 cells) (protein) MEAETGSSVETGKKANRGTRIALVVFVGGTLVLGTILFLVSQGLLSLQAKQEYCLKPECIEAAAAILSKVNLSVDPCDNFFRFACDGWISNNPIPEDMPSYGVYPWLRHNVDLKLKELLEKSISRRRDTEAIQKAKILYSSCMNEKAIEKADGKPLLHILRHSPFRWPVLESNIGPEGVWSERKFSLLQTLATFRGQYSNSVFIRLYVSPDDKASNEHILKLDQATLSLAVREDYLDNSTEAKSYRDALYKFMVDTAVLLGANSSRAEHDMKSVLRLEIKIAEIMIPHENRTSEAMYNKMNISELSAMIPQFDWLGYIKKVIDTRLYPHLKDISPSENVVVRVPQYFKDLFRILGSERKKTIDNYLVWRMVYSRIPNLSRRFQYRWLEFSRVIQGTTTLLPQRDKCVNFIESALPYVVGKMFVDVYFQEDKKEMMEELVEGVRWAFIDMLEKENEWMDAGTKRKAKEKARAVLAKVGYPEFIMNDTHVNEDLKAIKFSEADYFGNVLQTRKYLAQSDFFWLRKAVPKTEWFTNPTTVNAFYSASTNQIRFPAGELQKPFFWGTEYPRSLSYGAIGVIVGHEFTHGFDNNGRKYDKNGNLDPWWSTESEEKFKEKTKCMINQYSNYYWKKAGLNVKGKRTLGENIADNGGLREAFRAYRKWINDRRQGLEEPLLPGITFTNNQLFFLSYAHVRCNSYRPEAAREQVQIGAHSPPQFRVNGAISNFEEFQKAFNCPPNSTMNRGMDSCRLW | production of Tyr-D-Ala-Gly from the substrate was evident only in NEP-expressing membrane preparations
2 | recombinant human NEP (neprilysin, expressed from human NEP cDNA in COS-7 cells) (protein) MESQMDITDINTPKPKKKQRWTPLEISLSVLVLLLTIIAVTMIALYATYDDGICKSSDCIKSAARLIQNMDATTEPCTDFFKYACGGWLKRNVIPETSSRYGNFDILRDELEVVLKDVLQEPKTEDIVAVQKAKALYRSCINESAIDSRGGEPLLKLLPDIYGWPVATENWEQKYGASWTAEKAIAQLNSKYGKKVLINLFVGTDDKNSVNHVIHIDQPRLGLPSRDYYECTGIYKEACTAYVDFMISVARLIRQEERLPIDENQLALEMNKVMELEKEIANATAKPEDRNDPMLLYNKMTLAQIQNNFSLEINGKPFSWLNFTNEIMSTVNISITNEEDVVVYAPEYLTKLKPILTKYSARDLQNLMSWRFIMDLVSSLSRTYKESRNAFRKALYGTTSETATWRRCANYVNGNMENAVGRLYVEAAFAGESKHVVEDLIAQIREVFIQTLDDLTWMDAETKKRAEEKALAIKERIGYPDDIVSNDNKLNNEYLELNYKEDEYFENIIQNLKFSQSKQLKKLREKVDKDEWISGAAVVNAFYSSGRNQIVFPAGILQPPFFSAQQSNSLNYGGIGMVIGHEITHGFDDNGRNFNKDGDLVDWWTQQSASNFKEQSQCMVYQYGNFSWDLAGGQHLNGINTLGENIADNGGLGQAYRAYQNYIKKNGEEKLLPGLDLNHKQLFFLNFAQVWCGTYRPEYAVNSIKTDVHSPGNFRIIGTLQNSAEFSEAFHCRKNSYMNPEKKCRVW | production of Tyr-D-Ala-Gly from the substrate was evident only in NEP-expressing membrane preparations
